Assay results published in patent publication US20190112392A1 (Ablynx, published 2019).

Key:
[1] = target: T cell receptor alpha/beta on primary cynomolgus T cells (cynomolgus); experiment: cell-based or functional assay
[2] = target: HER2 on cells (human, UniProt P04626 23-1255); experiment: cell-based or functional assay

Row | Binder | IC50, xCELLigence cynomolgus T cell mediated SKBR3 killing assay [1] | IC50 (column head prints EC50), xCELLigence based cytotoxicity (readout 18 h), MCF-7, human T cells, E/T 15:1 [2] | IC50, xCELLigence based cytotoxicity (readout 18 h), SKBR3, human T cells, E/T 15:1 [2] | IC50, xCELLigence based cytotoxicity (readout 18 h), MCF-7, human T cells, E/T 15:1 [2]
1 | T017000102 (bispecific antibody) EVQLVESGGGLVQAGGSLRLSCAASGITFSINTMGWYRQAPGKQRELVALISSIGDTYYADSVKGRFTISRDNAKNTVYLQMNSLKPEDTAVYYCKRFRTAAQGTDYWGQGTLVTVSSGGGGSGGGGSGGGGSGGGGSGGGGSGGGGSGGGGSEVQLVESGGGLVQPGGSLRLSCVASGDVHKINFLGWYRQAPGKEREKVAHISIGDQTDYADSAKGRFTISRDESKNMVYLQMNSLKPEDTAVYFCRAFSRIYPYDYWGQGTLVTVSSGAADYKDHDGDYKDHDIDYKDDDDKGAAHHHHHH | 46 pM | 120 pM | 14 pM | –
2 | T017000103 (bispecific antibody) EVQLVESGGGLVQPGGSLRLSCVASGDVHKINFLGWYRQAPGKEREKVAHISIGDQTDYADSAKGRFTISRDESKNMVYLQMNSLKPEDTAVYFCRAFSRIYPYDYWGQGTLVTVSSGGGGSGGGGSGGGGSGGGGSGGGGSGGGGSGGGGSEVQLVESGGGLVQAGGSLRLSCAASGITFSINTMGWYRQAPGKQRELVALISSIGDTYYADSVKGRFTISRDNAKNTVYLQMNSLKPEDTAVYYCKRFRTAAQGTDYWGQGTLVTVSSGAADYKDHDGDYKDHDIDYKDDDDKGAAHHHHHH | 12 pM | – | 3.8 pM | 59 pM
